Source: paper PMC8372784, “AMOTL2 mono-ubiquitination by WWP1 promotes contact inhibition by facilitating LATS activation” (Life Science Alliance, 2021)

Biological target: T1, GST-WWP1 (WW-domain containing protein 1) (UniProt Q9H0M0 1-922)
T1 construct: WWP1, HECT-type E3 ligase, full length; source: baculovirus-infected Sf9 insect cells, purified
Experiment: pull-down; GST or GST-WWP1 (1 μg) immobilised on glutathione-Sepharose 4B, 200 ng AMOTL2-V5; 20 mM Tris-Cl pH 7.9, 150 mM KCl, 0.2 mM EDTA, 20% glycerol, 0.05% NP-40, 0.2 mg/ml BSA; 4°C, 3 h; Western blot
Details: both partners purified

B1: AMOTL2-V5 (angiomotin-like 2) (natural protein, UniProt Q9Y2J4 1-779, looked up)
chain: MRTLEDSSGTVLHRLIQEQLRYGNLTETRTLLAIQQQALRGGAGTGGTGSPQASLEILAPEDSQVLQQATRQEPQGQEHQGGENHLAENTLYRLCPQPSKGEELPTYEEAKAHSQYYAAQQAGTRPHAGDRDPRGAPGGSRRQDEALRELRHGHVRSLSERLLQLSLERNGARAPSHMSSSHSFPQLARNQQGPPLRGPPAEGPESRGPPPQYPHVVLAHETTTAVTDPRYRARGSPHFQHAEVRILQAQVPPVFLQQQQQYQYLQQSQEHPPPPHPAALGHGPLSSLSPPAVEGPVSAQASSATSGSAHLAQMEAVLRENARLQRDNERLQRELESSAEKAGRIEKLESEIQRLSEAHESLTRASSKREALEKTMRNKMDSEMRRLQDFNRDLRERLESANRRLASKTQEAQAGSQDMVAKLLAQSYEQQQEQEKLEREMALLRGAIEDQRRRAELLEQALGNAQGRAARAEEELRKKQAYVEKVERLQQALGQLQAACEKREQLELRLRTRLEQELKALRAQQRQAGAPGGSSGSGGSPELSALRLSEQLREKEEQILALEADMTKWEQKYLEERAMRQFAMDAAATAAAQRDTTLIRHSPQPSPSSSFNEGLLTGGHRHQEMESRLKVLHAQILEKDAVIKVLQQRSRRDPGKAIQGSLRPAKSVPSVFAAAAAGTQGWQGLSSSERQTADAPARLTTDRAPTEEPVVTAPPAAHAKHGSRDGSTQTEGPPDSTSTCLPPEPDSLLGCSSSQRAASLDSVATSRVQDLSDMVEILI
notes: AMOTL2 (angiomotin-like 2), full length; The legends print AMOTL-V5; the text prints AMOTL2-V5; also called AMOTL-V5; source: baculovirus-infected Sf9 insect cells, purified
B1: binds.
